Experimental data as given in publication PMC7642358 (Nature Communications, 2020).
Positions count from the first letter of the chain named.

B1: Sybody 6 (VHH)
VHH: QVQLVESGGGLVQAGGSLRLSCAASGFPVNHTRMYWYRQAPGKEREWVAAIQSHGQNTFYADSVKGRFTISRDNAKNTVYLQMNSLKPEDTAVYYCYVWVGNQYWGQGTQVTVS
B2: 18 (VHH)
VHH: QVQLVESGGGLVQAGGSLRLSCAASGFPVDYKSMWWYRQAPGKEREWVAAIDSAGDTTTYADSVKGRFTISRDNAKNTVYLQMNSLKPEDTAVYYCTVWVGTTYTGQGTQVTVS
B3: 32 (VHH)
VHH: B2 VHH with D30A, Y31H, D52E, A54T, T59R, T97V, T102E, T103V, T105R
B4: Sybody 15 (VHH)
VHH: QVQLVESGGGLVQAGGSLRLSCAASGFPVYEHYMRWYRQAPGKEREWVAAIQSHGNHTAYADSVKGRFTISRDNAKNTVYLQMNSLKPEDTAVYYCFVVVGNGYTGQGTQVTVS
B5: 33 (VHH)
VHH: QVQLVESGGGLVQAGGSLRLSCAASGFPVKTAEMEWYRQAPGKEREWVAAISSTGKSTFYADSVKGRFTISRDNAKNTVYLQMNSLKPEDTAVYYCHVYVGRTYIGQGTQVTVS
B6: Sybody 8 (VHH)
VHH: QVQLVESGGGLVQAGGSLRLSCAASGFPVKSYEMEWYRQAPGKEREWVAAISSYGEYTEYADSVKGRFTISRDNAKNTVYLQMNSLKPEDTAVYYCYVWVGDSYLGQGTQVTVS
B7: 37 (VHH)
VHH: QVQLVESGGGLVQAGGSLRLSCAASGFPVYNTWMEWYRQAPGKEREWVAAITSYGFHTYYADSVKGRFTISRDNAKNTVYLQMNSLKPEDTAVYYCNVKDEGNTTAYYDYWGQGTQVTVS
B8: 40 (VHH)
VHH: B7 VHH with Y30Q, N31G, Y54V, F56Y, H57R, N103A, T104I, T105A, A106K, Y107N
B9: 35 (VHH)
VHH: QVQLVESGGGLVQAGGSLRLSCAASGFPVNYTIMFWYRQAPGKEREWVAAIKSTGEHTLYADSVKGRFTISRDNAKNTVYLQMNSLKPEDTAVYYCNVKDAGQGWQEYDYWGQGTQVTVS
B10: Sybody 1 (VHH)
VHH: QVQLVESGGGLVQAGGSLRLSCAASGFPVNTSEMAWYRQAPGKEREWVAAIESSGDETYYADSVKGRFTISRDNAKNTVYLQMNSLKPEDTAVYYCYVYVGGSYLGQGTQVTVS
B11: Sybody 16 (VHH)
VHH: B6 VHH with Q13R, K30A, Y32Q, E35T, Y54S, E56R, Y57Q, W99Y, D102G, L105I
B12: 30 (VHH)
VHH: B10 VHH with N30W, T31Y, S32K, A35E, E52T, S54A, D56H, E57H, G102E, L105I
B13: Sybody 7 (VHH)
VHH: B5 VHH with K30N, T31A, A32E, T54S, K56D, S57W, F59Y, H97L, R102S
B14: Sybody 4 (VHH)
VHH: B10 VHH with T31G, S32F, E33N, A35E, E52T, S54E, D56N, E57Y, G102Q, L105I
B15: Sybody 14 (VHH)
VHH: B6 VHH with K30A, S31T, Y32A, E35V, S52M, Y54A, E56Q, Y57E, D102K, L105I
B16: 21 (VHH)
VHH: B10 VHH with N30K, T31E, A35T, P41R, E52N, S54H, D56M, E57T, Y59H, L105I
B17: 28 (VHH)
VHH: B6 VHH with K30Y, Y32A, E56T, Y57N, E59Y, W99Y, D102S, L105I
B18: 24 (VHH)
VHH: B6 VHH with K30S, S31T, Y32A, Y54S, E56T, Y57W, E59Y, D102S
B19: 29 (VHH)
VHH: QVQLVESGGGLVQAGGSLRLSCAASGFPVHYTYMRWYRQAPGKEREWVAAIKSYGQHTTYADSVKGRFTISRDNAKNTVYLQMNSLKPEDTAVYYCEVVGETYRGQGTQVTVS
B20: Sybody 2 (VHH)
VHH: QVQLVESGGGLVQAGGSLRLSCAASGFPVSNEEMTWYRQAPGKEREWVAAIASNGNQTEYADSVKGRFTISRDNAKNTVYLQMNSLKPEDTAVYYCYVYVGASYIGQGTQVTVS
B21: 25 (VHH)
VHH: B20 VHH with S30E, N31S, E32T, A52E, N54E, N56H, Q57G, S103G
B22: 19 (VHH)
VHH: B20 VHH with S30Y, N54Y, N56R, Q57L, A102Q
B23: Sybody 10 (VHH)
VHH: B20 VHH with S30E, N31S, E32A, T35E, A52T, N54Q, N56T, Q57I
B24: Sybody 3 (VHH)
VHH: B20 VHH with N31H, E32T, A52E, N54Q, N56V, Q57Y, E59H, E89D, A102G, S103G
B25: 27 (VHH)
VHH: B6 VHH with S31A, Y32S, E35V, S52L, Y54Q, E56H, Y57A, D102R, L105I
B26: Sybody 5 (VHH)
VHH: B20 VHH with S30A, N31Q, E32Q, A52S, N54I, N56S, Q57I, E59H
B27: Sybody 17 (VHH)
VHH: B5 VHH with T31A, A32S, S52A, T54I, K56Y, S57N, F59Y, H97L, R102A
B28: 31 (VHH)
VHH: B20 VHH with S30W, N31S, E32A, A52N, N54H, N56R, Q57I, S85G, A102K
B29: 39 (VHH)
VHH: QVQLVESGGGPVQAGGSLRLSCAASGFPVMWSHMHWYRQAPGKEREWVAAIVSYGAYTIYADSVKGRFTISRDNAKNTVYLQMNSLKPEDTAVYYCNVKDFGGYRYYYDYWGQGTQVTVS
B30: 22 (VHH)
VHH: QVQLVESGGGLVQAGGSLRLSCAASGFPVNHYEMEWYRQAPGREREWVAAIMDSTGYETAYADSVKGRFTISRDNAKNTVYLQMNSLKPEDTAVYYCYVYVGASYIGQGTQVTVS
B31: Sybody 9 (VHH)
VHH: QVQLVESGGGLVQAGGSLRLSCAASGFPVGQQHMYWYRQAPGKEREWVAAIYSYGHITKYADSVKGRFTISRDNAKNTVYLQMNSLKPEDTAVYYCWVYVGDYYEGQGTQVTVS
B32: Sybody 13 (VHH)
VHH: QVQLVESGGGLVQAGGSLRLSCAASGFPVENYYMRWYRQAPGKEREWVAAIESSGAETRYADSVKGRFTISRDNAKNTVYLQMNSLKPEDTAVYYCYVVVGWGYAGQGTQVTVS
B33: Sybody 11 (VHH)
VHH: QVQLVESGGGLVQAGGSLRLSCAASGFPVRTENMHWYRQAPGKEREWVAAIYSFGATMLYADSVKGRFTISRDNAKNTVYLQMNSLKPEDTAVYYCAVNVGEWYEGQGTQVTVS
B34: 36 (VHH)
VHH: QVQLVESGGGLVQAGGSLRLSCAASGFPVEWKHMTWYRQAPGKEREWVAAIASTGAYTHYADSVKGRFTISRDNAKNTVYLQMNSLKPEDTAVYYCNVKDWGSKTTYYDYWGQGTQVTVS
B35: 41 (VHH)
VHH: B34 VHH with W31H, K32Q, T35H, A52V, A56H, H59I, S103D, K104T, T105S, T106Q
B36: 38 (VHH)
VHH: B34 VHH with E30Y, K32A, A52V, T54S, H59A, W101F, S103T, K104Q, T105E, T106H
B37: 43 (VHH)
VHH: B34 VHH with K32T, T35H, T54S, H59V, K104Q, T105D, T106R

target: SARS-CoV-2 spike receptor-binding domain (2019-nCoV RBD-SD1, residues 319–566) (SARS-CoV-2, UniProt P0DTC2)

Binder | binding result
B1 | binds
B2 | binds
B3 | binds
B4 | binds
B5 | binds
B6 | binds
B7 | binds
B8 | binds
B9 | binds
B10 | binds
B11 | binds
B12 | binds
B13 | binds
B14 | binds
B15 | binds
B16 | binds
B17 | binds
B18 | binds
B19 | binds

Binder | binding result
B20 | binds
B21 | binds
B22 | binds
B23 | binds
B24 | binds
B25 | binds
B26 | binds
B27 | binds
B28 | binds
B29 | binds
B30 | binds
B31 | binds
B32 | binds
B33 | binds
B34 | binds
B35 | binds
B36 | binds
B37 | binds
